Measurements reported in patent publication US9625458B2, “Biosensor” (priority 2002, dated 2017).

Key:
[1] = Fe(III) affinity of Fe(III) BP from competition with Fe(III) chelates / Fe(III) citrate; type: binding; conditions: E57D mutation; assuming logK=10.25 for 1:1 Fe(III) citrate complex; unit inferred
Text: Family of biosensors. A set of eleven bPBPs with widely varying ligand-binding specificities was selected for engineering biosensor function (Table 2). All were from E. coli except Fe(III) BP, which is from Haemophilus influenzae. Binding specificities and affinities of these proteins for their respective ligands have been characterized (references in Table 2). […] Most of these bPBPs bind at most two or three related ligands with high affinity (micromolar or better). […] Measured ligand dissociation constants in these proteins are typically in the range of 0.1 to 1 μM.
Cysteine point mutations were introduced by the PCR overlap method (Ho et al., Gene 77:51-59, 1989). Mutant proteins typically expressed as well as the wild type protein. […] In the case of Fe(III) BP, all mutations were constructed in the E57D background. […] This permitted straightforward determination of Fe(III) affinity by direct titration with Fe(III) citrate at nanomolar concentrations of Fe(III) BP.

[2] = Fluorimetric titration of Fe(III) BP (E57D) conjugates with Fe(III) citrate; type: binding; conditions: E57D background, read-out: Kd of Fe(III) BP conjugate
Procedure: Fluorimetry. All measurements were conducted with an SLM Aminco-Bowman series 2 fluorimeter, with sample stirring at 25° C. Fluorescence emission spectra were acquired with excitation and emission slit widths of 4 and 8 nm, respectively. Photomultiplier tube potential was maintained between 400 and 800 volts. Protein concentrations were in the range of 50 to 1000 nM. Fluorophore-specific excitation was at the following approximate wavelengths: tryptophan, 290 nm; acrylodan, 390 nm; fluorescein, 485 nm; pyrene, 340 nm; NBD and NBDE, 490 nm; JPW4039, 485 nm; JPW4042, 470 nm; JPW4045, 470 nm.
Corrections were made for dilution of the protein and for background signal from buffer. Binding curves were fit to binding isotherms using equation 3 or 4, as appropriate.
Analyte affinity measurements. […] The emission wavelength monitored was that of maximum difference in intensity between the ligand-free and bound states. For each conjugate, fluorescence intensiometric observations were fit to a hyperbolic binding isotherm for a two-state model (Marvin et al., Proc. Natl. Acad. Sci. USA 94:4366-4371, 1997): […]

B1: Fe(III) BP E57D: Fe(III) BP with Glu57 substituted by Asp to weaken Fe(III) affinity (protein, UniProt P35755 24-332, looked up, variant E57D)
Iron-utilization periplasmic …: DITVYNGQHKEAATAVAKAFEQETGIKVTLNSGKSEQLAGQLKEEGDKTPADVFYTDQTATFADLSEAGLLAPISEQTIQQTAQKGVPLAPKKDWIALSGRSRVVVYDHTKLSEKDMEKSVLDYATPKWKGKIGYVSTSGAFLEQVVALSKMKGDKVALNWLKGLKENGKLYAKNSVALQAVENGEVPAALINNYYWYNLAKEKGVENLKSRLYFVRHQDPGALVSYSGAAVLKASKNQAEAQKFVDFLASKKGQEALVAARAEYPLRADVVSPFNLEPYEKLEAPVVSATTAQDKEHAIKLIEEAGLK
Kd [1]: ~0.03 µM

B2: Fe(III) BP E203C-acrylodan (conjugate, UniProt P35755 24-332, looked up, variant E203C)
Iron-utilization periplasmic …: DITVYNGQHKEAATAVAKAFEQETGIKVTLNSGKSEQLAGQLKEEGDKTPADVFYTEQTATFADLSEAGLLAPISEQTIQQTAQKGVPLAPKKDWIALSGRSRVVVYDHTKLSEKDMEKSVLDYATPKWKGKIGYVSTSGAFLEQVVALSKMKGDKVALNWLKGLKENGKLYAKNSVALQAVENGEVPAALINNYYWYNLAKCKGVENLKSRLYFVRHQDPGALVSYSGAAVLKASKNQAEAQKFVDFLASKKGQEALVAARAEYPLRADVVSPFNLEPYEKLEAPVVSATTAQDKEHAIKLIEEAGLK
modifications: acrylodan label
Kd [2]: ~138 µM
